Source: the supplement of paper PMC10567573

B1: DFFB (parent)
chain: TLVEAIKEQDGREVDWEYFYGLLF

Variants of: B1
Assay: protein stability index of a GFP-peptide fusion (GPS, HEK-293T) (PSI 1-6); higher = more stable
Details: c terminus: a fixed tail appended
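Also: lentivirally expressed fusions sorted by FACS into six bins by GFP to DsRed ratio, PSI derived from sequencing read proportions per bin multiplied by bin number.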

Variant | protein stability index
TLVKAIKEQDGREVDWEYFYGLLF | 2.99
TLVDAIKEQDGREVDWEYFYGLLF | 1.68
TLVGAIKEQDGREVDWEYFYGLLF | 2.26
TLVSAIKEQDGREVDWEYFYGLLF | 2.62
TLVVAIKEQDGREVDWEYFYGLLF | 2.87
TLVIAIKEQDGREVDWEYFYGLLF | 1.57
TLVCAIKEQDGREVDWEYFYGLLF | 2.92
TLVTAIKEQDGREVDWEYFYGLLF | 1.58
TLVHAIKEQDGREVDWEYFYGLLF | 1.97
TLVWAIKEQDGREVDWEYFYGLLF | 1.76
TLVQAIKEQDGREVDWEYFYGLLF | 1.97
TLVAAIKEQDGREVDWEYFYGLLF | 1.37
TLVFAIKEQDGREVDWEYFYGLLF | 2.38
TLVLAIKEQDGREVDWEYFYGLLF | 1.93
TLVPAIKEQDGREVDWEYFYGLLF | 2.08
TLVNAIKEQDGREVDWEYFYGLLF | 2.11
TLVEDIKEQDGREVDWEYFYGLLF | 2.54
TLVECIKEQDGREVDWEYFYGLLF | 1.95
TLVEPIKEQDGREVDWEYFYGLLF | 2.74
TLVEIIKEQDGREVDWEYFYGLLF | 1.36
TLVESIKEQDGREVDWEYFYGLLF | 2.15
TLVEWIKEQDGREVDWEYFYGLLF | 2.84
TLVEYIKEQDGREVDWEYFYGLLF | 2.73
TLVEFIKEQDGREVDWEYFYGLLF | 1.89

Variant | protein stability index
TLVEHIKEQDGREVDWEYFYGLLF | 1.98
TLVEGIKEQDGREVDWEYFYGLLF | 2.68
TLVENIKEQDGREVDWEYFYGLLF | 2.11
TLVEQIKEQDGREVDWEYFYGLLF | 2.4
TLVEKIKEQDGREVDWEYFYGLLF | 1.89
TLVEEIKEQDGREVDWEYFYGLLF | 2.29
TLVEVIKEQDGREVDWEYFYGLLF | 1.48
TLVERIKEQDGREVDWEYFYGLLF | 2.29
TLVETIKEQDGREVDWEYFYGLLF | 2.88
TLVEMIKEQDGREVDWEYFYGLLF | 2.35
TLVEAIKFQDGREVDWEYFYGLLF | 1.1
TLVEAIKGQDGREVDWEYFYGLLF | 2.37
TLVEAIKNQDGREVDWEYFYGLLF | 2.53
TLVEAIKQQDGREVDWEYFYGLLF | 1.43
TLVEAIKIQDGREVDWEYFYGLLF | 1.3
TLVEAIKLQDGREVDWEYFYGLLF | 2.82
TLVEAIKKQDGREVDWEYFYGLLF | 1.83
TLVEAIKVQDGREVDWEYFYGLLF | 1.66
TLVEAIKHQDGREVDWEYFYGLLF | 2.47
TLVEAIKRQDGREVDWEYFYGLLF | 2.67
TLVEAIKDQDGREVDWEYFYGLLF | 2.08
TLVEAIKYQDGREVDWEYFYGLLF | 2.48
TLVEAIKSQDGREVDWEYFYGLLF | 1.72
TLVEAIKMQDGREVDWEYFYGLLF | 1.62

Variant | protein stability index
TLVEAIKPQDGREVDWEYFYGLLF | 2.38
TLVEAIKAQDGREVDWEYFYGLLF | 1.88
FLVEAIKEQDGREVDWEYFYGLLF | 2.56
QLVEAIKEQDGREVDWEYFYGLLF | 2.37
RLVEAIKEQDGREVDWEYFYGLLF | 1.59
ALVEAIKEQDGREVDWEYFYGLLF | 2.32
GLVEAIKEQDGREVDWEYFYGLLF | 2.05
WLVEAIKEQDGREVDWEYFYGLLF | 1.65
HLVEAIKEQDGREVDWEYFYGLLF | 1.89
DLVEAIKEQDGREVDWEYFYGLLF | 2.24
KLVEAIKEQDGREVDWEYFYGLLF | 2.37
SLVEAIKEQDGREVDWEYFYGLLF | 1.41
LLVEAIKEQDGREVDWEYFYGLLF | 1.58
NLVEAIKEQDGREVDWEYFYGLLF | 2.02
YLVEAIKEQDGREVDWEYFYGLLF | 2.13
MLVEAIKEQDGREVDWEYFYGLLF | 1.31
ELVEAIKEQDGREVDWEYFYGLLF | 2.9
VLVEAIKEQDGREVDWEYFYGLLF | 3.13
PLVEAIKEQDGREVDWEYFYGLLF | 2.54
TLVEAWKEQDGREVDWEYFYGLLF | 1.38
TLVEAFKEQDGREVDWEYFYGLLF | 2.38
TLVEAKKEQDGREVDWEYFYGLLF | 2.2
TLVEANKEQDGREVDWEYFYGLLF | 2.2
TLVEASKEQDGREVDWEYFYGLLF | 1.89

Variant | protein stability index
TLVEAMKEQDGREVDWEYFYGLLF | 1.94
TLVEAVKEQDGREVDWEYFYGLLF | 2.25
TLVEACKEQDGREVDWEYFYGLLF | 2.24
TLVEAQKEQDGREVDWEYFYGLLF | 2.32
TLVEATKEQDGREVDWEYFYGLLF | 2.01
TLVEARKEQDGREVDWEYFYGLLF | 2.16
TLVEAAKEQDGREVDWEYFYGLLF | 2.59
TLVEAPKEQDGREVDWEYFYGLLF | 2.17
TLVEAYKEQDGREVDWEYFYGLLF | 1.81
TLVEAHKEQDGREVDWEYFYGLLF | 2.58
TLVEAEKEQDGREVDWEYFYGLLF | 2.58
TPVEAIKEQDGREVDWEYFYGLLF | 2.41
TNVEAIKEQDGREVDWEYFYGLLF | 2.31
TRVEAIKEQDGREVDWEYFYGLLF | 2.77
TEVEAIKEQDGREVDWEYFYGLLF | 3.08
TQVEAIKEQDGREVDWEYFYGLLF | 1.41
TTVEAIKEQDGREVDWEYFYGLLF | 2.2
TVVEAIKEQDGREVDWEYFYGLLF | 2.4
TDVEAIKEQDGREVDWEYFYGLLF | 2.17
TSVEAIKEQDGREVDWEYFYGLLF | 3.15
TYVEAIKEQDGREVDWEYFYGLLF | 1.71
TWVEAIKEQDGREVDWEYFYGLLF | 1.92
